These results are taken from the supplement of paper PMC7125110.

± gives the standard error. Variants at the floor of the assay were thinned out.

B1: glmS ribozyme (parent)
chain: AUAAAAGCGCCAGAACUACAGAAAUGUAGUUGACGAGGAGGAGGUUUAUCGAAUUUUCGGCGGAUGCCUCCAAA

Holding throughout (conditions): with glucosamine-6-phosphate
Data set [1] covers variants of B1. Nature of the data set: self-cleavage kobs at 640 uM GlcN6P; higher = faster cleavage; RNA array. In outline:
(§1)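 Barcoded ribozyme variants on sequenced MiSeq chips were transcribed in situ by E. coli RNA polymerase and followed at 37 °C through a hybridised Cy3 probe. Glucosamine-6-phosphate at 40 μM to 10 mM in HEPES/KCl/Mg(OAc)2 buffer was flowed in, and tiles were imaged over ~14 h. Signals were normalised to baseline and to non-cleaving reference variants, and per-tile medians were fit to one- or two-exponential decays to give kobs. Weighted Michaelis–Menten fits across concentrations gave kcat and KM.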

The variants in data set [2] derive from B1. As to the kind of experiment: self-cleavage kobs at 2500 uM GlcN6P; higher = faster cleavage; RNA array. In outline: as §1
Data set [3] covers variants of B1. Nature of the data set: self-cleavage kobs at 10000 uM GlcN6P; higher = faster cleavage; RNA array. In outline: as §1

On to AUAAAAGCGCCAGAACUACAGAAAUGUAGUUGACGAGGAGGAGCUUUAUCGAAUUUUCGGCGGAUGCCUACAAA, for which the “self-cleavage kobs at 640 uM GlcN6P” value with glucosamine-6-phosphate [1] was less than 1e-05 s⁻¹. The “self-cleavage kobs at 2500 uM GlcN6P” value with glucosamine-6-phosphate [2] is less than 1e-05 s⁻¹. The “self-cleavage kobs at 10000 uM GlcN6P” value in the data set with glucosamine-6-phosphate [3] is less than 1e-05 s⁻¹.
On to AUAAAAGCGCCAGAACUACAGAAAUGUAGUUGACGAGGAGGAGGUUUAUCGGAUUUUCGGCGGAUGCCGUCAAA, for which the “self-cleavage kobs at 640 uM GlcN6P” value with glucosamine-6-phosphate [1] was 0.000107 ± 3.1e-05 s⁻¹. Moreover, the “self-cleavage kobs at 2500 uM GlcN6P” value in the data set with glucosamine-6-phosphate [2] was found to be 7.59e-05 ± 1.7e-05 s⁻¹.
Consider AUAAAAGCGCCAGAAUUACAGAAAUGUAUUAGACGAGGAGGAGGUUUAUCGAAUUUUCGGCGGAUGCCUCCAAA, for which, in the data set with glucosamine-6-phosphate [1], the “self-cleavage kobs at 640 uM GlcN6P” value amounted to 0.00108 ± 0.00033 s⁻¹. Further, the “self-cleavage kobs at 2500 uM GlcN6P” value with glucosamine-6-phosphate [2] was 0.0037 ± 0.00095 s⁻¹.
As for AUAAAAGCGCCAGAACUACAGAAAUGUAGUUGACGAGGAGGAGGUUUAUCUAUAUUUCGGCGGAUGCCUCCAAA, the “self-cleavage kobs at 640 uM GlcN6P” value with glucosamine-6-phosphate [1] was less than 1e-05 s⁻¹. For the same variant, the “self-cleavage kobs at 10000 uM GlcN6P” value with glucosamine-6-phosphate [3] is less than 1e-05 s⁻¹.
For the variant AUAAAAGCGCCAGAACUACAGAAAUGUACUUGACGAGGAGGAGGUUUAUCGAAUGUUCGGCGGAUGCCUCAAAA, in the data set with glucosamine-6-phosphate [1], the “self-cleavage kobs at 640 uM GlcN6P” value turned out to be 0.000503 ± 0.00015 s⁻¹. Also, in the data set with glucosamine-6-phosphate [2], the “self-cleavage kobs at 2500 uM GlcN6P” value stood at 5.43e-05 ± 1.3e-05 s⁻¹.
On to AUAAAAGCGCCAGAACUACAGAAAUGUAGUUGACAAGGAGGAGGGUUAUCGAAUUUCCGGCGGAUGCCUCCAAA, for which, in the data set with glucosamine-6-phosphate [1], the “self-cleavage kobs at 640 uM GlcN6P” value is less than 1e-05 s⁻¹.
Consider AUAAAAGCGCCAGAACUACAGAAAUGUAGUUGACGAGGAGGAGGUUUAUCGCAUUUUCAGCGGAUGCCGCCAAA, for which the “self-cleavage kobs at 640 uM GlcN6P” value with glucosamine-6-phosphate [1] was less than 1e-05 s⁻¹.
AUAAAAGCGCCAGAGCUACAGAAAUGUAGUUGACGAGGAGGAGGUUUAUCGACUUUUCGGCGGAUGCUUCCAAA: the “self-cleavage kobs at 640 uM GlcN6P” value in the data set with glucosamine-6-phosphate [1] was 4.28e-05 ± 2e-05 s⁻¹. Besides, the “self-cleavage kobs at 2500 uM GlcN6P” value with glucosamine-6-phosphate [2] turned out to be 0.000114 ± 3.9e-05 s⁻¹.
On to AUAAAAACGCCAGAACUACAGAAAUGUAGUUGACGAUGAGGAGGUGUAUCGAAUCUUAGGCGGAUGCCUCCAAA, for which, in the data set with glucosamine-6-phosphate [1], the “self-cleavage kobs at 640 uM GlcN6P” value is less than 1e-05 s⁻¹.
On to AUAAAAGCGCCAGAACUACAGAAAUGUAGUUGGCGAGGAGCAGGUUUAUCGAAUUUUCGGCGUAUGCCUCCAAA, for which the “self-cleavage kobs at 640 uM GlcN6P” value in the data set with glucosamine-6-phosphate [1] is less than 1e-05 s⁻¹. Besides, the “self-cleavage kobs at 10000 uM GlcN6P” value with glucosamine-6-phosphate [3] is less than 1e-05 s⁻¹.
Consider AUAAAAGCGCCAGGAUUACAGAAAUGUAGUUGACGAGGAGGAGGAUUAUCUAAUUUUCGGGGGAUGCCUCCAAA, for which the “self-cleavage kobs at 640 uM GlcN6P” value with glucosamine-6-phosphate [1] is less than 1e-05 s⁻¹.
In the case of AUAAAAGCGCCAGAACUACAGAAAUGUAGUUGACGAGGAGGAGGUUAUUCGAAUUUUGGGCGGAUGCCUCCAAA, in the data set with glucosamine-6-phosphate [1], the “self-cleavage kobs at 640 uM GlcN6P” value is less than 1e-05 s⁻¹. The “self-cleavage kobs at 2500 uM GlcN6P” value with glucosamine-6-phosphate [2] was less than 1e-05 s⁻¹.
Take AUAAAAGCGCCACAACUACAGAAAUGUACUUGACGAGGAGGAGGUUUAUCGAAUUUUCGGCGGAUGCCUCCAAA: the “self-cleavage kobs at 640 uM GlcN6P” value in the data set with glucosamine-6-phosphate [1] was 2.89e-05 ± 9.5e-06 s⁻¹. The “self-cleavage kobs at 2500 uM GlcN6P” value with glucosamine-6-phosphate [2] came out at 3.23e-05 ± 1.2e-05 s⁻¹. Moreover, the “self-cleavage kobs at 10000 uM GlcN6P” value with glucosamine-6-phosphate [3] was found to be 9.98e-05 ± 2.1e-05 s⁻¹.
AUAAAAGCGCCAGAACUACAGAAAUGUAGUUUACGAGUAGGAGGUUUAUCGAAUUUUCGGCGGAUGCCUCCAAA: in the data set with glucosamine-6-phosphate [1], the “self-cleavage kobs at 640 uM GlcN6P” value was less than 1e-05 s⁻¹. For the same variant, the “self-cleavage kobs at 2500 uM GlcN6P” value with glucosamine-6-phosphate [2] is less than 1e-05 s⁻¹.
Take AUAAAAGCGCCAGAACGACAGAAAUGUAGUUGACGAGGAGGAGGUUUAUCGAAUUUUCGGCGAAUGCCUCCAAA: in the data set with glucosamine-6-phosphate [1], the “self-cleavage kobs at 640 uM GlcN6P” value is less than 1e-05 s⁻¹. The “self-cleavage kobs at 2500 uM GlcN6P” value in the data set with glucosamine-6-phosphate [2] was less than 1e-05 s⁻¹.
As to AUAAAAGCGCCAGAACUACAGAAAUGUAGUUAACUAGCCGGAGGUUUAGCGAAUUUUCGGCGGAUGCCUCCAAA, the “self-cleavage kobs at 640 uM GlcN6P” value in the data set with glucosamine-6-phosphate [1] was less than 1e-05 s⁻¹. Moreover, the “self-cleavage kobs at 2500 uM GlcN6P” value with glucosamine-6-phosphate [2] was less than 1e-05 s⁻¹.
Consider AUAAAAGCGCCAGGACUACAGAAAUGUAGUGGACGAGGAGGAGGUUUAUGGAAUUUUCGGCGGAUGCCUCCAAA, for which the “self-cleavage kobs at 640 uM GlcN6P” value with glucosamine-6-phosphate [1] turned out to be 0.000132 ± 3.6e-05 s⁻¹.
Turning to AUAAAAGCGCCAAACCUACAGAAAUGUAGUUGACGAGGAGGAGGUUUAUCGAAUUUUCGUCGGAUGCCUCCAAA, the “self-cleavage kobs at 640 uM GlcN6P” value with glucosamine-6-phosphate [1] is less than 1e-05 s⁻¹.
In the case of AUAAAAGCGCCAGAACUACAGAAAUGUAGUUGCCGAGAAGGAGGUUGAUCGAAUUUUCGGCGGAUGCCUCCAAA, the “self-cleavage kobs at 640 uM GlcN6P” value with glucosamine-6-phosphate [1] is less than 1e-05 s⁻¹. Moreover, the “self-cleavage kobs at 2500 uM GlcN6P” value in the data set with glucosamine-6-phosphate [2] is less than 1e-05 s⁻¹.
For AUAAAAGCGCCAGAACUACAGAAAUGUAGUUGACGAGGUGUUGGUUUAUCGAAUUUUCGGCGGAUGCCUCCAAA, the “self-cleavage kobs at 640 uM GlcN6P” value in the data set with glucosamine-6-phosphate [1] amounted to 5.35e-05 ± 1.4e-05 s⁻¹. In the data set with glucosamine-6-phosphate [2], the “self-cleavage kobs at 2500 uM GlcN6P” value is 0.000135 ± 2.2e-05 s⁻¹.
Take AUAAAAGCGCCAGAGCUACAGAAAUGUAGUUGACGAGGAGGAUGUUUUUUGAAUUUUCGGCGGAUGCCUCCAAA: in the data set with glucosamine-6-phosphate [1], the “self-cleavage kobs at 640 uM GlcN6P” value is less than 1e-05 s⁻¹.
The same measure, in the same setting: with AUAAAGGCGCCAGAACUACAGAAAUGUAGUUGACGAGGAGGAGGUUUGUCGAAUUUUCGGGGGAUGCCUCCAAA the figure was less than 1e-05 s⁻¹.
